In a protein production outcome set (Wang et al. 2014):

assay: label from the status in PepcDB records

Q: With “MMDFDFLEGKRLTEDVALDETMVWNEDIEMLDLHLVATSALIGVVHRVSYELLSRYLPNDYTAVVVETLARHVKAVPTGTRVAVGVRVVGVVGNRVKFRGIVMSGDEKILEAEFVRAIVPREKLRRLALEKAEKTSRLFGI” as the sequence, how does the protein production read?
A: not failed

Q: Which protein production does the source give for “MMDRDDDGYAERVAFYDTVYEQPERALDLAWLRRWLPPQFFGRRVLELACGSGYWTQYLAPAARAYQALDVSAGALALAGQRPGVGGVAFAVGEVETLPRPAQPFDAVFAGLWFSHLPRQRREGALAALHGCLAPGATVILLDNSEAQGGQFPVVEYDSEGNGYQSRPRHDGGQSRVLKNFPTEAEFRILLAPYGAAEIALMRREHFWLLRYRLPSRH” here?
A: failed

Q: With “MMDYGIDIWGNENFIIKNGKVCINYEKKPAIIDIVKELRDDGYKGPLLLRFPHLIQKQIENIYGNFNKARKEFGYKGGFNAVYPLKVNQYPGFVKNLVKLGKDYNYGLEAGSKAELLLAMAYNNEGAPITVNGFKDRELINIGFIAAEMGHNITLTIEGLNELEAIIDIAKERFKPKPNIGLRVRLHSAGVGIWAKSGGINSKFGLTSTELIEAVNLLKENKLLEQFTMIHFHLGSQITEIHPLKKALNEAGNIYTELRKMGAKNLKAINLGGGLAVEYSQFKNEKSRNYTLREYANDVVFILKNIAEQKKDLEPDIFIESGRFVAANHAVLIAPVLELFSQEYAENKLILKKQNPKLIDELYDLYKSIKPSNALEYLHDSIDHLESILTLFDLGYVDLQDRSNAEILTHLITKKAILLLGDKQNPADLLAIQDEVQERYLVNFSLFQSMPDFWGLEQNFPIMPLDRLDEEPTRSASIWDITCDSDGEISYSKDKPLFLHDVDVEKENYFLGFFLVGAYQEVLGMKHNLFTHPTEAIISINEKGYEVEGIIEAQSILDTLEDLDYDIHAIMDILNERISNSKLVNDKQKKHILGELYLFLNDNGYLKSIGVLEHHHHHH” as the sequence, how does the protein production read?
A: not failed

Q: For “MMEDRSLNSHGMPSRRGLEPLEWGATGLTVVLSVAAAATQQAILTAIAPLPLSLAVGLNWVSRKKLDDQFQVFRQQQEAKIAELVASQGQQQSELASLNLALAQVRDRLEDVQKQVMQLNQGAQDLHDYTRILDTEQKQIEEVLDCLREIEKNTQVIQVNPSHAKAYYNRGLTHQRLGDAEAAILDYTEAIRLNDTYAKAYHNRGVARSTLGDRKGAVEDLRTAAKLFFEQGDISSYQRARDLAKRIHEVGSIEQDNQEGTIKEVPLEILFS”, which protein production is on record?
A: failed

Q: With “MMEKDERFKQAEFGAIVGIVGNIILAIIKAVIGYIGNSKALLADAVHSASDVIGSLAVLFGLRAAKQPPDEDHPYGHGKAESISAIIVAVLLFIVGIEIAISSIKAFSQELEPPKGITIFAVVLSIIVKEGMFQYKFRLGKRVNSDAIIANAYEHRSDVFSSIAALIGICAAIIGGKFGLDWLVYADPIAGLFVSLLVAKMAWSIGTEAIHATLDHVLHEEDVIPLREAVLQIDGVKKIGSLYAREHGHYVIVDIKVSVDPYITVEEGHRIGKRVKETLMLQDNVQNVFVHINPYSPN” as the sequence, how does the protein production read?
A: failed

Q: For “MMGDYGITEEDLVIEEAQGYPRAYTKICRDFDAFPYKNGPPFTFMPYILQQNESLRCREVDQMFPVIDPKARPTTKPKIFLSLLWKQLNHLGNAGFDPAVIRIDPYGNVVYFHADSASPLAWSFDHWFPCSRGGLTVPSNLRIVQWQARKNKKDKLEFLVPWWDLQVGISVNQFLSIFAASSSDFRYR”, which protein production is on record?
A: failed

Q: Which protein production does the source give for “MMGGKGGFYRHLAVEGNFGGTTQSLAVCSTIGANSVKMPTSFLYTPHRQAEFMALLQISEPGMSASPHRHRLAAGIDLGTTNSLVATVRSGSAACLPDAEGRVTLPSVVRYLENGGIEVGKTALSAQKTDPLNTVSSAKRLIGRTLADLHQNTHYLPYRFGDNQRVIELHTRQGVKTPVEVSAEILKTLKSRAEETLGGDLVGVVITVPAYFDDAQRQATKDAARLAGLNVLRLLNEPTAAAIAYGLDNASEGTFVVYDLGGGTFDVSVLQLTKGLFEVKATGGNSALGGDDFDHRLFCRLLEQNGLSQLNEQDSQLLLSLVRAAKEQLTTQTEARIQATLSDGMAIDTSISRAEFHNLTQHLVMKTLEPVTQALKDAGVGKNEVKGVIMVGGSTRMLHVQQAVATFFGQTPLNNLNPDEVVALGAAIQANVLAGNKTDGEWLLLDVTPLSLGLETYGGLAEKIIPRNSTIPTARAQDFTTFKDGQTAMTIHVVQGERELVSDCRSLAKFTLRGIPPMAAGAARIRVTFQIDADGLLSVSAQEQSTGVQAQIEVKPSYGLDDGAITRMLKDSMDNAAEDMAARARAEAVVEAESLTDAVNAALELDSDLLDAKELQQIRQGIADLQGRLKDGKAEDIRSAVAKLSRSTDNFAAKRMNRNIQRALTGQSVDNI” here?
A: failed

Q: Which protein production does the source give for “MMHHALHIKNGIVIDPKNGVKAEKMDIFVKNGKIVEESEVKGEDVKVIDANNKLVVAGGVDMHAHIAGSKINTGRTMRPEEMRVVRNIAGKFRAAVGRVLLTSPLEHHHHHH” here?
A: failed

Q: For “MMIAAAIFTTCVDGNKFFYHREIKVLRHLKRFNKPALKSIKSEDGDVIDCVPITNQPAFDHHLLKNHTIQMRPSFYPVSDSTYTKREAKAVTQVWHKAGECPKNTVPIRRTKKEDLLRPKSIRSFGRKSHQSIPRTTTFDPTLGHQYALMGVRNGKFYGTEVAINLWKPYVQIPKEFSLAQTWVVSGNGSSLNTIEAGWQVYPELYDDNNPRFFVYWTRDGYRKTGCYNLLCSGFVQTSNRYTVGGSITTMSRYRGTQYDLSVLIWKDQKTGNWWLRVNEKDVIGYWPGSLFNSLGREATRVEWGGEIINSKTGGRHTTTDMGSGHFADEGFKKASYFRNLKIVDGTNTLREPQGLYFFADKHNCYNVKTGNGGTSWGAHFFYGGPGRNVKCP”, which protein production is on record?
A: not failed

Q: Which protein production does the source give for “MMIGENKNRPHPTIHIPQWDQINDPTATISSPFSSVNLNSVNDYPHSPSPYLDSFASLFRYLPSNELTNDSDSSSGDESSPLTDSFSSDEFRIYEFKIRRCARGRSHDWTECPFAHPGEKARRRDPRKFHYSGTACPEFRKGSCRRGDSCEFSHGVFECWLHPSRYRTQPCKDGTSCRRRICFFAHTTEQLRVLPCSLDPDLGFFSGLATSPTSILVSPSFSPPSESPPLSPSTGELIASMRKMQLNGGGCSWSSPMRSAVRLPFSSSLRPIQAATWPRIREFEIEEAPAMEFVESGKELRAEMYARLSRENSLG” here?
A: failed

Q: With “MMIITTMQDAIGRTPVFKFTNKDYPIPLNSAIYAKLEHLNPGGSVKDRLGQYLIGEGFKTGKITSKTTIIEPTAGNTGIALALVAIKHHLKTIFVVPEKFSTEKQQIMRALGALVINTPTSEGISGAIKKSKELAESIPDSYLPLQFENPDNPAAYYHTLAPEIVQELGTNLTSFVAGIGSGGTFAGTARYLKERIPAIRLIGVEPEGSILNGGEPGPHEIEGIGVEFIPPFFENLDIDGFETISDEEGFSYTRKLAKKNGLLVGSSSGAAFVAALKEAQRLPEGSQVLTIFPDVADRYLSKGIYL” as the sequence, how does the protein production read?
A: failed

Q: With “MMKLLHLFMDEITMDPLHAVYLTVGLFVITFFNPGANLFVVVQTSLASGRRAGVLTGLGVALGDAFYSGLGLFGLATLITQCGEIFSLIRIVGGAYLLWFAWCSSMRRHSTPQMSTLQQPISAPWYVFFRRGLITDLSNPQTVLFFISIFSVTLHAETPTWARLMAWAGIVLASIIWRVFLSQAFSLPAVRRAYGRMQRVASWVIGAIIGVFALRLIYEGVTQR” as the sequence, how does the protein production read?
A: failed

Q: Which protein production does the source give for “MMKNKKVEANLSMVVSKTFSGLNMNALKYLLPVWVSPLSGVTLRCVFAAIAFWIIGMFVKPEISTRKEKIFLFLLGALGIYGFMFLYLMGLSKTTPVSSSIFTSLQPIWVFVIAVVFFKEKISAMKIAGISLGLGGAILCILAQKSDDLASDALTGNMLCLLSSIAYAVYLVASNRILKSVGMFTVLKYTFAGAAFSSIVVSAVTGFHAPVFSGPLHWFPLSVLLFVLIFPTVVSYLLVPIGLKYLKTTVVAIYGYLILIVATIVSLLVGQDRFSWSQTIAIGMICVSVYLVEVAETKEKPVSNSDKPSSLPPHGS” here?
A: failed

Q: Which protein production does the source give for “MMLAVEDVLSELAGEERNERGLPPGFRFHPTDEELITFYLASKIFHGGLSGIHISEVDLNRCEPWELPEMAKMGEREWYFYSLRDRKYPTGLRTNRATTAGYWKATGKDKEVFSGGGGQLVGMKKTLVFYKGRAPRGLKTKWVMHEYRLENDHSHRHTCKEEWVICRVFNKTGDRKNVGLIHNQISYLHNHSLSTTHHHHHEALPLLIEPSNKTLTNFPSLLYDDPHQNYNNNNFLHGSSGHNIDELKALINPVVSQLNGIIFPSGNNNNDEDDFDFNLGVKTEQSSNGNEIDVRDYLENPLFQEASYGLLGFSSSPGPLHMLLDSPCPLGFQL” here?
A: failed

Q: For “MMMEEKLVINELELGKELANRLMNNLKHTSSVDSNKTLISDILRIYQNAIFMLSFNQDKNILKRSLEIDGKDSKNVFKKRKVSEKNTEKVKVFVATEQENGSIDDGHCWRKYGQKEIHGSKNPRAYYRCTHRFTQDCLAVKQVQKSDTDPSLFEVKYLGNHTCNNITSPKTTTNFSVSLTNTNIFEGNRVHVTEQSEDMKPTKSEEVMISLEDLENKKNIFRTFSFSNHEIENGVWKSNLFLGNFVEDLSPATSGSAITSEVLSAPAAVENSETADSYFSSLDNIIDFGQDWLWS”, which protein production is on record?
A: failed

Q: With “MMNLALQQRISELGPWFQNMRFGEIETAPDHFLGDYPAFKWEGFKHVVPKDLEGCSVLDIGCNAGFYALEMKRRNAGRVLGIDSDPRYLEQARFAADHFGLDVEFRQMSVYEVSKLGERFDLVLFMGVLYHLRHPLLALDLLYEHVVADLMLFQCLQRGEERIAKLEEDYDFSEWKIFDRSDFPKLFFVEERFAADPTNWFIPNKAAVEAMLRSSGFVIEANPEREVYLCRRGRRPYKVEPPPG” as the sequence, how does the protein production read?
A: failed

Q: For “MMNNVKYLSFALILAFSACKSGSASSQEPSEKQDTVKIFNLPQIPVVLNTVEQRTDYMVKHYWDRFDFSDTTYINQAEVPEQAWVDYCDLLEHVPLPVAQTAMKETFNRAEKNRKMLHFFEELADKYLYDPNSPMRNEEFYIPVLEALIASPALDETAKIRPQARLELAQKNRLGTKALNFTYTLDSGVKGTLYQFPAEYTLLFINNPGCHACAEMIEGLKASPVINGFTAAKKLKVLSIYPDEELDEWKKHRNDFAKEWTNGYDKELVIKNKNLYDLRAIPTLYLLDKNKTVLLKDATLQKVEQYLAERG”, which protein production is on record?
A: failed

Q: For “MMNSRQRYKAFISYSHHDRKAAEWLHRSLESYRPPAGLRAGLGEASGNALKPIFRDRDELSAAADLSEAIRDALDRSDTLIILCSSHAATSRWVDKEVAHFLTLRGADHMISVIAPGAPEGLPLMELLPPALRAALPEGVEPLAVDLRQDADGRRLAKLKIAARLLGVSLDRLVQRDARRRLRLMTAVSGVALAITVGMGAMTVVTLKSRQIAREQRDETEALVAYMLGDLREQLEPVGRLDLLDGVSAKVLAYYAKAQSDQLDDKALAQRAKAQTLLGTIREQRGDLEGAQDAFAQAAATTHALVERSPNDGDRVFDEAQNVFWLAYMGWRRGEIAQAERGFKRYAELAQRLVVIDPNRADWRIEVAYAKNNLGTLLFEEGRAGEALASFRAAFSIFEAERLRAPTDKQRLMDSANARAWVADCLLLMAKPREAFTERKAAAELLAKGEAAFPADQRLAAKSVATQLALARLELDLGRVAEARSRSKAAMNRLRELAALDPTNTRWREYVLIGELDFIDFAIWSGQPVQARSLHAAALANLARTRKGQEGGSWRPDLDGRLARQAVVLALSVGDVATAKRAAKSLVEALETSKVDRETAFGRTDLLGLAQLVDGKPSAAIKALSPRRNALPPASLDVLARAYAAVGERETAARIVRDLKQEGYAHPGFVAFWRESPAGGPPQSGVLK”, which protein production is on record?
A: failed

Q: Which protein production does the source give for “MMNTTTLDRYFDLFDASRTDEKAFDDLISLFSDEITFVLNGQEQHGIDAWKQFVRMVFTANQDIKHMYAGWVPSETGDTMETRWAVCGKSADGSVFTQDGTDIARLNADGKIVYLANVPDDTAMFNQYND” here?
A: not failed

Q: For “MMNYKQLLIDNFAFKTSYVAQFVPGMSIKETKDYIAVDCGLPADTFNIITLLNNNLTEGVEKLYKEVEYYNQKKFPMSVWLWDEEQERDIKSELNKIGLKEAEQNIAMVADLKTISPTINMPVSFTIQQASSPGLIKKFGETLANLFGTSEEAIHVQAFYNQISNLDLWNSENMKLFLGFYEGEIVTVGSLICSKDSIGIYDIATKEEMRGRGFGSTMFNFLLQEAQKFKNTYCVLQASTDGINIYKKSGFQAIGKMTVLENRHVIE”, which protein production is on record?
A: failed
